Results: US20110287001A1, “METHOD OF TREATMENT” (TETRALOGIC PHARMACEUTICALS, priority 2008, published 2011)

Key:
Assay in all cases: ATPLITE cell viability, TRAIL and compound X with or without anti-human TNFα antibody
Type in all cases: cell-based
A375 melanoma cells = details: A375, 48 hours
Description: (§1) Cells were seeded in flat-bottom 96-well plates (clear bottom, white walls) at a concentration of 1×10^4 cells/well and incubated overnight at 37° C., 5% CO2. The following day, cells were stimulated with TRAIL at a concentration ranging from 0.24 ng/ml to 1 μg/ml (4-fold dilutions) in combination with IAP inhibitor compound X at a concentration ranging from 0.01 nM to […] (10-fold dilutions).
(§2) A blocking antibody to human TNFα (R&D Systems, Minneapolis, Minn.) was added to some cultures at a final concentration of 5 μg/ml two hours before the addition of the combination of TRAIL and compound X. Final culture volumes were 100 μl
(§3) After 48 hours, cell viability was determined using the ATPLITE™ assay, an adenosine triphosphate (ATP) monitoring system based on firefly (Photinus pyralis) luciferase (Perkin Elmer, Waltham, Mass.) according to the manufacturer's recommendations. Relative light units (RLU) were measured using an LJL Biosystems Analyst HT plate reader (Molecular Devices, Sunnyvale, Calif.). The percent of surviving cells was calculated as follows: (experimental RLU/control RLU)×100. The control RLU was determined by testing untreated cells.

[1] = tested on: SKOV-3 ovarian cancer cells; details: SKOV-3, 48 hours
Description: as §1, §2, §3

[2] = tested on: HCT116 colon cancer cells
Description: as §1, §2, §3

B1: TRAIL: TNF-related apoptosis-inducing ligand (TRAIL), TRAIL receptor agonist (protein, UniProt P50591 1-281, looked up)
Tumor necrosis factor ligand …: MAMMEVQGGPSLGQTCVLIVIFTVLLQSLCVAVTYVYFTNELKQMQDKYSKSGIACFLKEDDSYWDPNDEESMNSPCWQVKWQLRQLVRKMILRTSEETISTVQEKQQNISPLVRERGPQRVAAHITGTRGRSNTLSSPNSKNEKALGRKINSWESSRSGHSFLSNLHLRNGELVIHEKGFYYIYSQTYFRFQEEIKENTKNDKQMVQYIYKYTSYPDPILLMKSARNSCWSKDAEYGLYSIYQGGIFELKENDRIFVSVTNEHLIDMDHEASFFGAFLVG
single agent killing (A375 melanoma cells): partialy resistant | single agent-induced cell death [1]: resistant | single agent-induced cell death ([2]; HCT116, 48 hours): some sensitivity | surviving cells (percent of control) ([2]; HCT116, TRAIL 1 μg/ml, 48 hours): 40%
